Source: the nanobody polyreactivity screen of Harvey et al. (2022)

Assay: yeast display, Sf9 membrane polyspecificity reagent, FACS + sequencing; frameworks hold sequencing errors
In short: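 Nanobodies from a synthetic yeast display library (Saccharomyces cerevisiae BJ5465), induced 36–48 hours with galactose, were stained 1 hour at 4 °C with 10% biotinylated, detergent-solubilized Sf9 membrane reagent, enriched on streptavidin microbeads, then FACS-sorted. Anti-HA (expression) and streptavidin (reagent binding) fluorescence set low and high (top ~1%) gates. Polyreactivity labels come from the gate of origin. Genes were colony-PCR amplified, MiSeq 2 × 250 sequenced and filtered by CDR length.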

Sequence	polyreactivity (PSR sort gate)
QVQLVESGGGLVQAGCSLRLSCAASGITFNFYAMGWYRQAPGKERELVAAITSSGASTNYADSVKGRFTISRDNAKNTVYLQMNSLYPEDTAVYYCNAQRSRHSLYPVNELYYWGQGTQVTVTS	low polyreactivity
QVQLVESGGGLVQAGGSLRLSCAAYGYIIDRYAMGWYRPAPGKERELVAAISSDGSTYYADSVKGRFTISRDNAKNTVYLQMNSLKPEDTAVYYGAADGGESAWGGYDYWGQGSQVTVSS	low polyreactivity
QVQLVESGGGLVQAGGSLRLSCAASGRTFTYNAMGWYRQAPGKERELVASITWSGGRTYYADSVKGRFTISRDNAKNTVYLQMNSLKPEDTAVYYCAAYRWWGYITGVRGAKSIFDYWGQGTQVTVSS	high polyreactivity
QVQLVESGGGVVQAGGSLRLSCAASGSIFRYYTRGGYRQAPGKVRELVAAISRSGGSTYYADSVKGRFTISRDNAKNTVYLQMNSLKPEDTAVYYCAARYKRAQGYREGDYWGQGTQVTVSS	high polyreactivity
QVQLVESGGGLVQAGGSLRLSCAASGSTSKNYAMGWYRQAPGKERELVAAITRGTSTNYADSVKGRFTISRDNAKNTVYLQMNSLKPEDTAVYYCNVERHRVWDYQWREEDDYWGQGTQVTVSS	low polyreactivity
QVQLVESGGGLVQAGGSLRLSCAASGRTIRLYGMGSYRQAPGKERELVAAITWSGGRTYYADSVKGRFTISRDNEKNTFYLQMNSLKPEDSAVYYCAAGNSSYGKPKYYYWGQGTQVTVSS	high polyreactivity
QVQLVESGGGLVQAGGSLRLSCAASGRIFSRNTMGWYRQAPGKERELVATISWSGSRTYYADSVKGRFTISRDNAKNTVYLQMNSLKPEDTAVYYCAARLWPSYLSYGKTGDYWGQGTQVTVSS	high polyreactivity
QVQLVESGGGLVQAGGSLRLSCAASGRIFWYYVMGWYRQAPGKEREFVASISSGGSTYYADSVKGRFTISRDNAKNTVYLQMNSLKPEDTAVYYCNAYVYGQRVWYDYWGQGTQVTVSS	high polyreactivity
QVQLVESGGGLVQAGGSLRLSCAASGITFSFYTMGWYRQAPGKERELVAAMTQDGGSTYYADSVKGRFTISRDNAKNTVYLQMNSLKPEDTAVYYCASDLVVFVQFDVAVDYYYWGQGTQVTVSS	low polyreactivity
QLQLVESGGGLVQAGGSLRLSCAASGSTFTDYAMGWYRQAPGKERELVAAISWSGGSTYYADSVKGRFTISRDNAKNTVYLQMNSLKPEDTAVYYCAFRYHGYDYWGQGTQVTVSS	high polyreactivity
QVQLVESGGGLVQPGGSLRLSCAASGFTFIRNVMGWYRQAPGKERELVARITYSSGSTYYADSVKGRFTISRDNAKNTVYLQMNSLKPEDTAVYYCAVRLYSYLYNPFNYWGQGTQVTVSS	high polyreactivity
QVQLVESGGGLVQAGGSLRLSCAASGSTFRGNAMGWYRQAPGKERELVAAISSSGGSTNYADSVKGRFTISRDNAKNTVYLQMNSLKPEDTAVYYCAAERYFVWPFLLKYDYWGQGTQVTVSS	low polyreactivity
QVQLVESGGGLVQAGGSLRLSCAASGFTFSVYAMGWYRQAPGKERELVAVITKRGGSTYYADSVKGRFTISRDNAKNTVYLQMNSLKPEDTAVYYCNAYLQGKIFPYGYWGQGTQVTVSS	high polyreactivity
QVQLVESVGSLVQAGVSLRLSCAASGFILYANAMGWYRQAPGKERELGAAISRGTSTYYADSVKGRFTISRDNAKNTVYLQMTSLKPEDTAVYYCATSSYRPWGGYYWGQGTQVTVSS	high polyreactivity
QVQLVYSGGGLVQAGGSLRLSCAASGRTFSWYAMGWYRTAPGKESELVAAITWSGGSTYYADSVKGRFTISRDNAKNTVYLEMNSLKPEDTAVYFCNALRYSNRRYYSTGPHDYWGQGTHVTVSS	high polyreactivity
QVQLVESGGGLVPAGGSLRLSCAASGFTFNSNAMGWYRQAPGKERELVAAISGSGGRTYYADSVKGRFTISRDNAKNTVYLQRNSLKPEDTAVYYCAADYPVRSYDYWGQGTQVTVSS	low polyreactivity
QVQLVESGGCLVQAGGSLRLSCAASGSTFRFYAMGWYRQAPGKERELVATISSSGGTTYYADSVKGRFTISRDNAKNTVYLQMNSLKPEDTAVSYCAKDAFGWGRVYYYRSGYWGHGTQVTVSS	high polyreactivity
QVQLVESGGGLVQAGGSLRLSCAASGRTFTQYAMGWYRQAPGKDRELVAAIDYRGSRTYYADSVKGRFTLTRDKAKNTVYLQMNSLKPEDTAVYYCNTVHRFGTYDYWGEGTQVTVSS	high polyreactivity
QVQLVESGGGLVQAGGSLRLSCAASGSTFHYYARGWYSQAPGKDRELVAAIRTSGGSTYYADSVKGRFTISRDNEKNTVYLLMNCLKPEDTAVYYCNRVLGYPYGVDYWGQGTQVTVSS	high polyreactivity
QVQLVESGGGLVQAGGSLRLSCAASGNIFPYYPMGWYRQAPGKERELVASISRSGGSTYYADSVKGRFTISRDNAKNTVYLQMNSLKPEDTAVYYCAKRTPYYGFGFFHPARGYGYWGQGTQVTVSS	low polyreactivity
QVQLVESGGGLVQAGGSLRLSCAASGYTAYTYTMGWYRQAPGKVREWVAAMSRRSDSTYADSVKGRFTISRDNAKNTVYLQMNSLKPEDTADYYCAAVRVSYRSLSKSYYWGQGTQVTVSS	high polyreactivity
QVQLVESGGGLVQAGGSLRLSCAASGINFESYVMGWYRQAPGKERELVARISYSGGSTYYADSVKGRFTISRDNAKNTVYLQMNSLIPEDTAVYYCNARYLFSGRYSRRMEYWGQGTQVTVSS	high polyreactivity

Sequence	polyreactivity (PSR sort gate)
QVQLVESGGGLVQAGGSLRLSCAASGSILDGYDMGRYRQAPGKERDLDAAISTNSDRTYYADSVKGRFTISRDNAKNTVYLQMNSLKPEDTAVYYCNARKRRRAGYPYDYWGQGTQVTVSS	high polyreactivity
QVQLVESGGGLVQAGGSLRLSCAASGHIFFVNAMGWYRQAPGKERELVAAINSVGSTYYADSVKGRFTISRDNAKNTVYLQMNSLKPEDTAVYYCAADSVYSQRHSWAYEDDYWGQGTQVTVSS	low polyreactivity
QVQLVESGGGLVQAGGSLSLTCAASGSTFDWYAMRLYRQAPGKERELVAASTSGGSTYYADSVKGRFTISRDNAKITVYLQMNSLKPEDTAVYYCAAESRQVRYILYYYWGQGTQVTVSS	low polyreactivity
QVQLVESGGGLVQARGSLRLSCAASGLTFRIYAMGWYRQAPGKERELVAAITRGGSTYADSVKGRFTISRDNAKNTVYLQMNSLKPEDTAVYYCAARVRSTSQVSASPVWYYYWGLGTQVTVSS	high polyreactivity
QVQLVESGGGLVQAGGSLRLSCAASGSIFGYYAMGWYRQAPGKEREFVAAITWNGGSTYYADSVKGRFTISRDNAKNTVYLQMNSLKPEDTAVYYCARTSYARYRNGWTYDHWGQGTQVTVSS	low polyreactivity
QVQLVESGGGLVQAGGSLRLSCAASGRTFTWNAMGWYRQAPGKERELVADITNNGGSTYYADSVKGRFTISRDNATNTVYLQMNSLKPEDTAVYYCDNRRNYWFSFDYWGQGTQVTVSS	low polyreactivity
QVQLVESGGGLVQAGGSLRLSCAASGSILSYYVMGWYRQAPGKERELVAAITSDGSKNYADSVKGRFTISRDNAKNTVYLQMNSLKPEDTAVYYCAAVIAWYYGVQDVYYLGLYDYWGQGTQVTVSS	low polyreactivity
QVQLVESGGGLVQAGGSLRLSCAASGSIFRRNSMGWYRQAPGKERELVAAITRRGGSTYYADSVKGRFTISRDNAKNTVYLQMNSLKPEDTAVYYCAADPPDGFYYTWDYDYWGQGTQVTVSS	low polyreactivity
QVQLVESGGGLVQAGGSLRLSCADSGITFVTYAMGWYRQAPGKERELVAAISRSGGRTYYADYVKGRFTISRENAKNTVYLQMNSLKPEDTAVYYCAAERKNKYDYWVQGTQVTVSS	high polyreactivity
QVQLVESGGGIVQAGGSLRLSCAASGRIFWWYAMGMYRQAPGKERELVAVIDDSGGITYYADSVKGRFTISRDNAKNTVYLQMNSLKPEDTAVYYCARNVNAQKVLGGFDSWGQGTQVTVSS	low polyreactivity
QVQLVESGGGLVQAGGSLRLSCAASGLIFSSYAMGWYRQAPGKERELVAAISGSGGSTYYADSEKGRFTISRDNAKNTVYLQMNSLKPEDTAVYYCAAELDDYWVVSEDSSGQGTQVTVSS	low polyreactivity
QVQLVESGGGLVQAGGSLRLSCAASGFNFRYYTMGWYRQAPGTERELVAVITSGGTTYYADSVKGRFTISRDNAKNTVYLQMNSLKPEDTAVYYCAADYRPRLYGVGVDYWGQGTQVTVSS	low polyreactivity
QVQLVESGGGLVQAGGSLRLSCAASGFNFDFYAMGWYRQAPGKEREMVAAISKNDGTTYFAYSVKGRFTISRDNAKNTVYLQMNSLKPEDTAVYFCAAESGYPVYTYVSSGVYWGQGTQVTVSS	low polyreactivity
QVQLVESGGGLVQAGASLSLSCAASGRTFGGNAMGWYRQAPGKEREFVAAISRSGTSTYYADSVKGRFTISRDNAKNTVYFQMNSLKPEATAVYYCAALNYLKFAHKYDYWGQGTQVTVSS	low polyreactivity
QLQLGESGRGGVQAGGSLRVSCAPSGLPFIYYAMGWYRPAPGKVRELVATISQSGSSTYYADSVKGRFTSSRDHATNTVDLQMNSLKPADTAVDYCNVSSVRWARFDYWGQGTQVTVSS	high polyreactivity
QVQLVESGGGVVQAGGSLRLSCAASGSIFLGNAMGWYRPAPGKERELVAAITWSGGSTYYADSVKGRFTISRDNAKNTVYLQMNSLKPEDTAVYYCNAYSYVAIRDGGDYWGQGTLVTVSS	low polyreactivity
QVQLLESGGGLVQAGGSLRLSCASSGSIFFRNAMVWYRQAPGKEREYVAAITGSSVSTYYADSVKGRFTISRDNAKNTVYLQMNSLKPEDTAVYYCAVRKWIGYNPYDDWGQGTQVTVSS	high polyreactivity
QVQLVESGGGLVQAGGSLRLSCAASGRIFKFNAMGWYREAPGKERELVAAITTGGGSTYYADSVKGRFTISRDNAKNTVYLQMNSLKPEDTAVYYCATDRRHEYSSRRYYYWGQGTQVTVSS	high polyreactivity
QVQLEDSGGGLVQAGGSLRLSCAASGSIFILNTMGWYREAPGKERELVAGISYSGSTYYADSVKGRFTISRDNAKNTVYLQMNSLKPEDTAVYYCAADYGAAWYNDGYYYWGQGTQVTVSS	low polyreactivity
QVQLVESGGGLVQAGGSLRLSSAASGFTFAYNDLGWSRQAPGKERELVATITNSGASTSYADSEKGRFTISRDNAKNTVYLQMNSLKPEDTAVYYCNVGLWRYVRFTGRYYPYDYWGQGTQVTVSS	high polyreactivity
QVQLVESGGGLVQAGGSLRLSCAASGRIFYYYDMGWYRQAPGKERELVAAITYSDSSTYADSVKGRFTISRDNAKNTVYLQMNSLKPEDTAVYYCAADYVYPGVRLEMDYWGQGTQVTVSS	low polyreactivity
